Reference: PMC4866825, “The GIRK1 subunit potentiates G protein activation of cardiac GIRK1/4 hetero-tetramers” (eLife, 2016)
Values belong to the molecule of their own block, whether it stands above or below them.

How the values were obtained:
[1] = target: GIRK4 homo-tetramers, purified and reconstituted into proteoliposomes and planar lipid bilayers (human) (UniProt P48544)
[2] = target: GIRK1(N217D)/4 hetero-tetramers, purified and reconstituted into proteoliposomes and planar lipid bilayers (human) (UniProt P48549); conditions: scale: not given
[3] = target: GIRK1/4 hetero-tetramers, purified and reconstituted into proteoliposomes and planar lipid bilayers (human) (UniProt P48549)
[4] = target: GIRK4 homo-tetramers, purified and reconstituted into proteoliposomes and planar lipid bilayers (human) (UniProt P48544); remark: listed apart in the source
[5] = target: the molecule itself; test: SEC; fluorescent size-exclusion chromatography (FSEC) of solubilized HEK293T cell lysate, Superose 6 10/300 GL; 50 mM HEPES-KOH pH 7.35, 150 mM KCl, 4% DM for solubilization; GFP fluorescence followed
[6] = target: T1, GIRK1-His (human full-length GIRK1 with C-terminal PreScission site, eGFP and deca-histidine tag) (human, UniProt P48549 1-501); test: SEC; purified GIRK1/4 after PreScission cleavage of eGFP and tags, Superose 6 10/300 GL in 20 mM Tris-HCl pH 7.5, 150 mM KCl, 0.2% DM, 20 mM DTT, 1 mM EDTA; fractions of the peak run on 12% SDS-PAGE, band intensities compared; conditions: both partners purified
T1 construct: G protein gated inward rectifier K+ channel subunit GIRK1, human, full length; also called His-tagged GIRK1; GIRK1 subunit; source: HEK293S GnTI- cells, BacMam transduced together with GIRK4-1D4 (1:1), solubilized in DM; not shown: eGFP, C-terminal, kept; His10, C-terminal, kept
T1 sequence (looked up): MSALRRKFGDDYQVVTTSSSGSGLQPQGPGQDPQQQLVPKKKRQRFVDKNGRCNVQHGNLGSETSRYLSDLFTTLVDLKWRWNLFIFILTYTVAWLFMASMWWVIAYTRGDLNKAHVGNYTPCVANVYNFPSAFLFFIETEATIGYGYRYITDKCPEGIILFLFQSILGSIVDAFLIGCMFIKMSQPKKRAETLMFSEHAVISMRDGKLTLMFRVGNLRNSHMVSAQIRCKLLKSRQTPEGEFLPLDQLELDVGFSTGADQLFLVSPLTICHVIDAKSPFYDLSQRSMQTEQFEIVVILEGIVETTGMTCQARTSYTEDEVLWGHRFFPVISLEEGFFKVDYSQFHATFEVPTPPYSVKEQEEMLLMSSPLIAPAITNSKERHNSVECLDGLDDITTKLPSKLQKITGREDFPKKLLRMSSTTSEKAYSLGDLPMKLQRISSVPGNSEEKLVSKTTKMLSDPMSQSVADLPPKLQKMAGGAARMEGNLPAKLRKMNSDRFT

normalized GIRK4 current in planar lipid bilayers at 0.001 Ni-NTA mole fraction, 0 to 32 mM Na+ (normalized current) [1]: 0.34 | Kdb from a fit of the equilibrium gating model (b and θ4,4 fixed) to normalized planar lipid bilayer currents against Ni-NTA-lipid mole fraction at 0, 8 and 32 mM Na+ [2]: 0.0024 | b, cooperativity factor for Gβγ binding, from the fit of the equilibrium gating model to normalized planar lipid bilayer currents [3]: 0.6 | Kdb from a fit of the equilibrium gating model (two Na+ sites permanently occupied) to normalized planar lipid bilayer currents against Ni-NTA-lipid mole fraction at 0, 8 and 32 mM Na+ ([3]; scale: not given): 0.004 | b, cooperativity factor for Gβγ binding, from the fit of the equilibrium gating model to normalized planar lipid bilayer currents [4]: 0.6 | Kdb from a fit of the 25-state equilibrium gating model to normalized planar lipid bilayer currents against Ni-NTA-lipid mole fraction (membrane sGβγ-His10 density) at 0, 8 and 32 mM Na+ ([4]; scale: not given): 0.004
Molecule: soluble Gβγ with a deca-histidine-tag instead of its physiological lipid anchor (sGβγ-His10) (from UniProt P62873 1-340; P59768 1-71) (complex)

stoichiometry N [6]: 1 GIRK4 per GIRK1 (2:2 in the tetramer)
B3: GIRK4-1D4 (human full-length GIRK4 with C-terminal PreScission site, eGFP and 1D4 peptide tag) (natural protein, UniProt P48544 1-419, looked up)
chain: MAGDSRNAMNQDMEIGVTPWDPKKIPKQARDYVPIATDRTRLLAEGKKPRQRYMEKSGKCNVHHGNVQETYRYLSDLFTTLVDLKWRFNLLVFTMVYTVTWLFFGFIWWLIAYIRGDLDHVGDQEWIPCVENLSGFVSAFLFSIETETTIGYGFRVITEKCPEGIILLLVQAILGSIVNAFMVGCMFVKISQPKKRAETLMFSNNAVISMRDEKLCLMFRVGDLRNSHIVEASIRAKLIKSRQTKEGEFIPLNQTDINVGFDTGDDRLFLVSPLIISHEINQKSPFWEMSQAQLHQEEFEVVVILEGMVEATGMTCQARSSYMDTEVLWGHRFTPVLTLEKGFYEVDYNTFHDTYETNTPSCCAKELAEMKREGRLLQYLPSPPLLGGCAEAGLDAEAEQNEEDEPKGLGGSREARGSV
notes: G protein gated inward rectifier K+ channel subunit GIRK4, human, full length; also called 1D4-tagged GIRK4; GIRK4 subunit; source: HEK293S GnTI- cells, BacMam transduced together with GIRK1-His (1:1), solubilized in DM; not shown: eGFP, C-terminal, kept; 1D4 peptide, C-terminal, kept

The next lines start with the molecule.

B1: GIRK1 subunit fused to GFP (GIRK1-His10-pEG BacMam construct) (natural protein, human, UniProt P48549 1-501, looked up)
chain: T1 sequence (looked up)
notes: G protein gated inward rectifier K+ channel subunit GIRK1, human, full length; A PreScission protease cleavage site stands between GIRK1 and eGFP-His10; not cut for FSEC; also called GIRK1 homo-tetramers; source: HEK293T, transiently transfected, in solubilized cell lysate (4% DM); not shown: eGFP, C-terminal, kept; His10, C-terminal, kept
stoichiometry N [5]: 4 subunits

B2: GIRK4 subunit fused to GFP (GIRK4-1D4-pEG BacMam construct) (natural protein, human, UniProt P48544 1-419, looked up)
chain: B3 chain
notes: G protein gated inward rectifier K+ channel subunit GIRK4, human, full length; A PreScission protease cleavage site stands between GIRK4 and eGFP-1D4; not cut for FSEC; also called GIRK4 homo-tetramers; source: HEK293T, transiently transfected, in solubilized cell lysate (4% DM); not shown: eGFP, C-terminal, kept; 1D4 peptide, C-terminal, kept
stoichiometry N [5]: 4 subunits
